Numbering of substitutions follows the chain as printed.

The nature of data set [1]: Editing assays comparing gRNA scaffolds. The following applies: compared with gRNA scaffold 174.
The test system of data set [2] is endogenous B2M (beta-2-microglobulin) gene. The data set can be described thus: B2M protein expression by HLA antibody flow cytometry, dXR constructs (Example 1, Table 14). Format: cell-based, human. The note with it: for % cells expressing B2M protein: HEK293T cells, % of cells counted that were positive, biological triplicates. An excerpt:
dXR variant plasmids encoding constructs having the configuration of U6-gRNA+Ef1α-NLS-GGS-dCasX491-GGS-KRAB variant-NLS (dCasX491 refers to catalytically-dead CasX 491), were transiently transfected into HEK293T cells in an arrayed 96-well format. These constructs also contained a 2× FLAG sequence, as well as sequences encoding either a gRNA scaffold 174 (SEQ ID NO: 2238) having a spacer (spacer 7.37) targeting the endogenous B2M (beta-2-microglobulin) gene or a non-targeting control (spacer 0.0), which were all cloned upstream of a P2A-puromycin element on the plasmid. Four different effector domains were tested in addition to the “naked” dCasX491 (KRAB variant domains listed in Table 9; spacer sequences listed in Table 10; sequences of additional elements listed in Table 11). The corresponding protein sequences of the dXR molecule are listed in Table 13, and the generic configuration of the dXR molecule is illustrated in FIG. 38. Positive and negative controls based on a catalytically-dead Cas9 nuclease (with or without a ZNF10 repressor) with a B2M-targeting gRNA (spacer 7.14) or a non-targeting gRNA control (spacer 0.0) were included, along with a catalytically-active CasX 491 and gRNA with the same 7.37 and 0.0 spacers. Two days after transfection, total RNA was harvested, and reverse transcribed to generate a cDNA library. Changes in gene expression were calculated by performing qPCR on the targeted gene and a housekeeping gene as reference. Relative gene expression represents the amount of target-specific RNA relative to a reference gene normalized to the non-targeting guide condition for two biological replicates. In addition to the wells used for RNA measurements, a separate set of wells was harvested seven days post-transfection and analyzed for B2M protein expression. Expression of B2M protein was determined by using an antibody that detects the B2M-dependent HLA protein complex on the cell surface. […]

The next data set has as its system human B2M locus. Put plainly: Editing (indel rate by NGS) at the B2M locus by catalytically-dead CasX variants (Example 8). The format is cell-based. The note with it: HEK293T, B2M-targeting spacer 7.37, six days after transfection.
Another data set relates to HBEGF locus. The format is cell-based, human. The following applies: dCasX491-KRAB lentiviral library, spacer 34.28, HEK293T, 2 ng/ml diphtheria toxin 48 hours.

B1: 316 scaffold: chimeric RNA scaffold: scaffold 235 with extended stem loop of scaffold 174, SEQ ID NO: 59352, 89 nucleotides (nucleic acid)
guide: ACUGGCGCUUCUAUCUGAUUACUCUGAGCGCCAUCACCAGCGACUAUGUCGUAGUGGGUAAAGCUCCCUCUUCGGAGGGAGCAUCAGAG
modifications: listed as RNA, further chemistry not given here
For B1, the “performance in editing assays” value in data set [1] is listed as “comparably or more favorably than gRNA scaffold 174”.

B2: dCasX491: catalytically-dead CasX 491, SEQ ID NO: 18 (protein)
chain: QEIKRINKIRRRLVKDSNTKKAGKTGPMKTLLVRVMTPDLRERLENLRKKPENIPQPISNTSRANLNKLLTDYTEMKKAILHVYWEEFQKDPVGLMSRVAQPASKKIDQNKLKPEMDEKGNLTTAGFACSQCGQPLFVYKLEQVSEKGKAYTNYFGRCNVAEHEKLILLAQLKPEKDSDEAVTYSLGKFGQRALDFYSIHVTKESTHPVKPLAQIAGNRYASGPVGKALSDACMGTIASFLSKYQDIIIEHQKVVKGNQKRLESLRELAGKENLEYPSVTLPPQPHTKEGVDAYNEVIARVRMWVNLNLWQKLKLSRDDAKPLLRLKGFPSFPLVERQANEVDWWDMVCNVKKLINEKKEDGKVFWQNLAGYKRQEALRPYLSSEEDRKKGKKFARYQLGDLLLHLEKKHGEDWGKVYDEAWERIDKKVEGLSKHIKLEEERRSEDAQSKAALTDWLRAKASFVIEGLKEADKDEFCRCELKLQKWYGDLRGKPFAIEAENSILDISGFSKQYNCAFIWQKDGVKKLNLYLIINYFKGGKLRFKKIKPEAFEANRFYTVINKKSGEIVPMEVNFNFDDPNLIILPLAFGKRQGREFIWNDLLSLETGSLKLANGRVIEKTLYNRRTRQDEPALFVALTFERREVLDSSNIKPMNLIGVARGENIPAVIALTDPEGCPLSRFKDSLGNPTHILRIGESYKEKQRTIQAKKEVEQRRAGGYSRKYASKAKNLADDMVRNTARDLLYYAVTQDAMLIFANLSRGFGRQGKRTFMAERQYTRMEDWLTAKLAYEGLSKTYLSKTLAQYTSKTCSNCGFTITSADYDRVLEKLKKTATGWMTTINGKELKVEGQITYYNRYKRQNVVKDLSVELDRLSEESVNNDISSWTKGRSGEALSLLKKRFSHRPVQEKFVCLNCGFETHAAEQAALNIARSWLFLRSQEYKKYQTNKTTGNTDKRAFVETWQSFYRKKLKEVWKPAV
Consider B2, for which the “% cells expressing B2M protein” value is given as 85.70% in data set [2] (B2M-targeting spacer 7.37) and 95.90% in data set [2] (non-targeting spacer 0.0). The “cells negative for the B2M protein” value in data set [2] (HEK293T, seven days post-transfection, B2M-targeting gRNA, HLA flow cytometry) is about 10%. In addition, in the data set with human B2M locus, the “percent editing at the B2M locus measured as indel rate by NGS” value (shortened to “percent editing at the B2M locus”) is given as “did not exhibit editing”.

B3: dCasX668: catalytically-dead CasX 668, SEQ ID NO: 59355 (protein)
chain: QEIKRINKIRRRLVKDSNTKKAGKTRGPMKTLLVRVMTPDLRERLENLRKKPENIPQPISNTSRANLNKLLTDYTEMKKAILHVYWEEFQKDPVGLMSRVAQPASKKIDQNKLKPEMDEKGNLTTAGFACSQCGQPLFVYKLEQVSEKGKAYTNYFGRCNVAEHEKLILLAQLKPEKDSDEAVTYSLGKFGQRALDFYSIHVTKESTHPVKPLAQIAGNRYASSPVGKALSDACMGTIASFLSKYQDIIIEHQKVVKGNQKRLESLRELAGKENLEYPSVTLPPQPHTKEGVDAYNEVIARVRMWVNLNLWQKLKLSRDDAKPLLRLKGFPSFPLVERQANEVDWWDMVCNVKKLINEKKEDGKVFWQNLAGYKRQEALRPYLSSEEDRKKGKKFARYQLGDLLLHLEKKHGEDWGKVYDEAWERIDKKVEGLSKHIKLEEERRSEDAQSKAALTDWLRAKASFVIEGLKEADKDEFCRCELKLQKWYGDLRGKPFAIEAENSILDISGFSKQYNCAFIWQKDGVKKLNLYLIINYFKGGKLRFKKIKPEAFEANRFYTVINKKSGEIVPMEVNFNFDDPNLIILPLAFGKRQGREFIWNDLLSLETGSLKLANGRVIEKTLYNRRTRQDEPALFVALTFERREVLDSSNIKPMNLIGVARGENIPAVIALTDPEGCPLSRFKDSLGNPTHILRIGESYKEKQRTIQAKKEVEQRRAGGYSRKYASKAKNLADDMVRNTARDLLYYAVTQDAMLIFANLSRGFGRQGKRTFMAERQYTRMEDWLTAKLAYEGLPSKTYLSKTLAQYTSKTCSNCGFTITSADYDRVLEKLKKTATGWMTTINGKELKVEGQITYYNRYKRQNVVKDLSVELDRLSEESVNNDISSWTKGRSGEALSLLKKRFSHRPVQEKFVCLNCGFETHAAEQAALNIARSWLFLRSQEYKKYQTNKTTGNTDKRAFVETWQSFYRKKLKEVWKPAV
Regarding B3, the “percent editing at the B2M locus” value in the data set on human B2M locus was “did not exhibit editing”.

B4: dCasX676: catalytically-dead CasX 676, SEQ ID NO: 59357 (protein)
chain: B3 chain with L169K
Turning to B4, the “percent editing at the B2M locus” value in the data set with human B2M locus was “did not exhibit editing”.

B5: DOMAIN_26749: KRAB domain derived from the king cobra, Ophiophagus hannah, SEQ ID NO: 57755; top 10 (protein)
chain: STPVTFEDVVVYFTAAEWVHLTNWQRDFYQAVMMETYELVASVAGDGVPMAEDEEGGVERPVWQYIPRGKRRRKTPQPRAD
modifications: Ophiophagus hannah
B5: the “log2 (fold change) in abundance of the KRAB domain before and after selection” value in the data set on HBEGF locus is recorded as “highest log (fold change)”.

B6: dCasX527: catalytically-dead CasX 527, SEQ ID NO: 24 (protein)
chain: QEIKRINKIRRRLVKDSNTKKAGKTRGPMKTLLVRVMTPDLRERLENLRKKPENIPQPISNTSRANLNKLLTDYTEMKKAILHVYWEEFQKDPVGLMSRVAQPASKKIDQNKLKPEMDEKGNLTTAGFACSQCGQPLFVYKLEQVSEKGKAYTNYFGRCNVAEHEKLILLAQLKPEKDSDEAVTYSLGKFGQRALDFYSIHVTKESTHPVKPLAQIAGNRYASGPVGKALSDACMGTIASFLSKYQDIIIEHQKVVKGNQKRLESLRELAGKENLEYPSVTLPPQPHTKEGVDAYNEVIARVRMWVNLNLWQKLKLSRDDAKPLLRLKGFPSFPLVERQANEVDWWDMVCNVKKLINEKKEDGKVFWQNLAGYKRQEALRPYLSSEEDRKKGKKFARYQLGDLLLHLEKKHGEDWGKVYDEAWERIDKKVEGLSKHIKLEEERRSEDAQSKAALTDWLRAKASFVIEGLKEADKDEFCRCELKLQKWYGDLRGKPFAIEAENSILDISGFSKQYNCAFIWQKDGVKKLNLYLIINYFKGGKLRFKKIKPEAFEANRFYTVINKKSGEIVPMEVNFNFDDPNLIILPLAFGKRQGREFIWNDLLSLETGSLKLANGRVIEKTLYNRRTRQDEPALFVALTFERREVLDSSNIKPMNLIGVARGENIPAVIALTDPEGCPLSRFKDSLGNPTHILRIGESYKEKQRTIQAKKEVEQRRAGGYSRKYASKAKNLADDMVRNTARDLLYYAVTQDAMLIFANLSRGFGRQGKRTFMAERQYTRMEDWLTAKLAYEGLSKTYLSKTLAQYTSKTCSNCGFTITSADYDRVLEKLKKTATGWMTTINGKELKVEGQITYYNRYKRQNVVKDLSVELDRLSEESVNNDISSWTKGRSGEALSLLKKRFSHRPVQEKFVCLNCGFETHAAEQAALNIARSWLFLRSQEYKKYQTNKTTGNTDKRAFVETWQSFYRKKLKEVWKPAV
As for B6, the “percent editing at the B2M locus” value in the data set with human B2M locus is given as “did not exhibit editing”.

These data come from patent US20240392271A1, “ENGINEERED CASX REPRESSOR SYSTEMS” (Scribe Therapeutics Inc., priority 2021, published 2024).
